The results in this text go back to EP1947117A2 (THE UNITED STATES GOVERNMENT as represented by THE …, dated 2008).

Test [1] concerns the target hCG receptor on MA-10 cells (transformed murine Leydig cells) (murine, UniProt P30730 27-700). The experiment in a line: cell-based or functional assay.
Test [2] has as its target human TSH receptor on CHO cells (CHO-hTSHR clone JP09) (human, UniProt P16473 21-764). In words: cell-based or functional assay.

hCG receptor on MA-10 cells (transformed murine Leydig cells), sequence (P30730 27-700): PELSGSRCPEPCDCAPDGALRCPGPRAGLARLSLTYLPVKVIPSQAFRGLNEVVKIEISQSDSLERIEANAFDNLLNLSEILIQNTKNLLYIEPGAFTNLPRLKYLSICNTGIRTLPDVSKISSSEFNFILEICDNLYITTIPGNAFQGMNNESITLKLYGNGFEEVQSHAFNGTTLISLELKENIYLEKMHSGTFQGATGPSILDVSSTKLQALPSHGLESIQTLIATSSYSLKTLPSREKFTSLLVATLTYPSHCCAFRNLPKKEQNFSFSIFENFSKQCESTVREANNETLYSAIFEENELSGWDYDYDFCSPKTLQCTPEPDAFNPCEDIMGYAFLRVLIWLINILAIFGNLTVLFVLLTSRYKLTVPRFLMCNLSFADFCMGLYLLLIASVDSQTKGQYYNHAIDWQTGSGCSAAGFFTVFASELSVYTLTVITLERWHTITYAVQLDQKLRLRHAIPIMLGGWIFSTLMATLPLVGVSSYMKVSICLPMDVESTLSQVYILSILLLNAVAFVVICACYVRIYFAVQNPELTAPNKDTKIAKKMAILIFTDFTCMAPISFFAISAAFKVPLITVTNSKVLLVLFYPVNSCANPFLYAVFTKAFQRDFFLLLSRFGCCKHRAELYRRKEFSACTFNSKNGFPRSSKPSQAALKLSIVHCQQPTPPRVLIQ

B1: WT-hCG (wild-type recombinant human chorionic gonadotropin) (ligand)
chain 1: not shown
chain 2: SKEPLRPRCRPINATLAVEKEGCPVCITVNTTICAGYCPTMTRVLQGVLPALPQVVCNYRDVRFESIRLPGCPRGVNPVVSYAVALSCQCALCRRSTTDCGGPKDHPLTCDDPRFQDSSSSKAPPPSLPSPSRLPGPSDTPILPQ
In the case of B1, the “Progesterone synthesis in MA 10 cells, EC50” value in test [1] amounted to 6.9 ng/mL.

B2: WT-hTSH (wild-type recombinant human thyroid stimulating hormone) (ligand)
chain 1: not shown
chain 2: FCIPTEYTMHIERRECAYCLTINTTICAGYCMTRDINGKLFLPKYALSQDVCTYRDFIYRTVEIPGCPLHVAPYFSYPVALSCKCGKCNTDYSDCIHEAIKTNYCTKPQKSY
For B2, in test [2], the “cAMP stimulation in JP09 cells, EC50” value worked out at 6.7 ng/mL and the “cAMP stimulation in JP09 cells, relative potency (WT=1)” value is 1 fold (WT=1).
